Entries after “also recorded” stand apart in the source; their conditions may differ.
Tests used:
[1] = tested on: Prkci^fl/flPrkcz^fl/fl; Villin-Cre tumors; experiment: scRNAseq, CellphoneDB and multiplex staining of Prkci^fl/flPrkcz^fl/fl; Villin-Cre tumors treated with PEGPH20; type: in vivo, mouse
From the text: FIG. 10A illustrates experimental design and workflow of scRNAseq. Tumors from Veh (n=5) and PEGPH20-treated mice (n=3) were dissected and digested into single-cell suspensions for sequencing.
Primary antibody dilutions were optimized individually at H220 retrieval using the Leica BondRx Automated IHC stainer and evaluated by a board-certified pathologist for specificity. Multiplexed staining was optimized and then performed using the Automated Opal 7-Color IHC Kit (NEL821001KT) from Akoya Biosciences. A library for spectral separation was generated by staining control tissue with each opal fluor conjugated to CD20. Slides were imaged in the Vectra Polaris Automated Quantitative Pathology Multispectral Imaging System. Exposure times were maximized under the constraint that no pixel saturates the detector (Patel and Rodig, 2020; Patel et al., 2019).
Tumors were minced thoroughly and digested by 0.5 mg/ml Liberase TH (Sigma) for 30 minutes at 37° C. Dead cells were removed by Annexin V (STEMCELL technologies). scRNAseq libraries were generated using the Chromium Single Cell 30 Reagent Kit v2 (10× Genomics). Cells were loaded onto the 10× Chromium Single Cell Platform (10× Genomics) at a concentration of 2,000 cells per μl (Single Cell 3′ library and Gel Bead Kit v.2) as described in the manufacturer's protocol (10× User Guide, Revision B). Generation of gel beads in emulsion (GEMs), barcoding, GEM-RT clean-up, complementary DNA amplification and library construction were all performed as per the manufacturer's protocol. Individual sample quality was checked using a Bioanalyzer Tapestation (Agilent). Qubit was used for library quantification before pooling. The final library pool was sequenced on an Illumina NovaSeq6000 instrument using a S1 flow cell. Average cell recovery for Prkci^f/fPrkcz^f/f; Villin-Cre tumors was […] with a total of 209,907 cells captured at a mean depth of 14,568 read per cell and 895 mean genes per cell.
For scRNA-seq, raw sequence reads were quality-checked using FastQC software. The Cell Ranger version 2.1.1 software suite from 10× Genomics (https://support.10× genomics.com/single-cell-gene-expression/software/downloads/latest) was used to process, align, and summarize unique molecular identifier (UMI) counts against the mouse mm10 assembly reference genome analysis set, obtained from the University of California Santa Cruz (UCSC). Raw, unfiltered count matrices were imported into R for further processing. Raw UMI count matrices were filtered using the Seurat v 3.0 R package (Butler et al., 2018) to remove: barcodes with very low (less than 200, empty wells) and very high (more than 3000, probably doublets) total UMI counts; matrices for which a high percentage of UMIs originated from mitochondrial features (more than 12%); and matrices for which fewer than 250 genes were expressed. Subsequently, the data were normalized using the SCTransform function, regressing out the following variables: total number of UMIs per cell and percentage of mitochondrial UMIs. Following normalization, the principal components were computed. The top principal components were identified using the ElbowPlot function and used for the UMAP dimensionality reduction. For clustering, Seurat was used in combination with Harmony software (Korsunsky et al., 2019) to correct the potential effects of technical differences between sequencing batches. The RunHarmonyo, RunUMAP( ), FindNeighbors( ), and FindClusters( ) functions were run for clustering and the percentage of mitochondrial features was considered to be a source of unwanted variation and was regressed out using the Seurat package. […] For the differential gene expression analysis, the FindMarker( ) function with default parameters was run for comparison between populations. The cell groups were annotated based on the marker gene analysis and canonical markers from the literature. […]

pancreatic cancer = pancreatic cancer patients; cited from earlier work
[2] = scRNAseq tumor epithelial cells

B1: PEGPH20: a PEGylated version of human recombinant PH20 hyaluronidase; clinical-grade pegylated hyaluronidase (Halozyme Therapeutics) (protein, UniProt P38567 36-490, looked up)
Hyaluronidase PH-20: LNFRAPPVIPNVPFLWAWNAPSEFCLGKFDEPLDMSLFSFIGSPRINATGQGVTIFYVDRLGYYPYIDSITGVTVNGGIPQKISLQDHLDKAKKDITFYMPVDNLGMAVIDWEEWRPTWARNWKPKDVYKNRSIELVQQQNVQLSLTEATEKAKQEFEKAGKDFLVETIKLGKLLRPNHLWGYYLFPDCYNHHYKKPGYNGSCFNVEIKRNDDLSWLWNESTALYPSIYLNTQQSPVAATLYVRNRVREAIRVSKIPDAKSPLPVFAYTRIVFTDQVLKFLSQDELVYTFGETVALGASGIVIWGTLSIMRSMKSCLLLDNYMETILNPYIINVTLAAKMCSQVLCQEQGVCIRKNWNSSDYLHLNPDNFAIQLEKGGKFTVRGKPTLEDLEQFSEKFYCSCYSTLSCKEKADVKDTDAVDVCIADGVCIDAFLKPPMETEEPQIFYNASPSTLS
modifications: PEGylated
- TGFβ signals provided by myeloid cells and CD4+ Tregs ([1]; CellphoneDB): reduced
- communications between TRSC and trophocytes ([1]; CellphoneDB): induced a high number
- interaction between Spp1-Ptger4/Cd44 in fibroblasts and Spp1 interactions between telocytes and CD4+ Tregs ([1]; CellphoneDB): eliminates
- interactions between TFSCs and telocytes ([1]; CellphoneDB): switching off
- secretion of Ccl27a in TRSCs, Ccl28 in TcTAs and residual TFSCs, Ccl25 in TcTAs and TFSCs ([1]; CellphoneDB): increased
- secretion of growth signals from telocytes to myeloid cells and CD4+ Tregs ([1]; CellphoneDB): repressed
- Rspo1/3 in trophocytes ([1]; CellphoneDB, interact with Lgr5 in TRSC): enriched
- presence of TFSCs (ANXA10+ staining) ([1]; IHC): strongly reduced
- presence of TRSCs (CLU+ staining) ([1]; IHC): not reduced
- ANXA10+/Alcian Blue and ANXA10+/MUC2+ TGCs ([1]; IHC and multiplex imaging): reduced
- flow from TcTA to TFSC ([1]; RNA velocity trajectory analysis): total disruption
- myeloid cells and CD4+ Tregs in tumors ([1]; VECTRA multiplex imaging): concomitant reduction
- B, plasma, and CD8+ T cells infiltrating the tumors ([1]; VECTRA multiplex imaging, CD138 staining): allows CD8+ T cell infiltration; also recorded: strong recruitment
- collagens, matrix metalloproteinases, and signatures related to matrix remodeling in the intermediate fibroblasts ([1]; differential gene expression): substantial reduction
- vessel normalization signature ([1]; endothelial compartment): increased
- angiogenesis, glycolysis, and hypoxia signatures ([1]; endothelium compartment): reduced
- signatures related to interferon activation ([1]; endothelium compartment): increased
- trophocyte levels (PDGRA−/CD31−/CD34+) ([1]; immunofluorescence, mainly at the crypt-bottom positions): strongly increased
- PDGFRA+/NRG1+ fibroblasts at the luminal border ([1]; multiplex immunofluorescence): significantly reduced
- expression of several ICIs, including Ctla4, in CD4+ Tregs ([1]; scRNAseq): higher expression
- Cd47 immune checkpoint inhibitor expression ([1]; scRNAseq / CellphoneDB): clear increase
- signatures corresponding to CD8+ T cells exhaustion, stem-like, and expansion ([1]; scRNAseq CD8+ T cells): enrichment
- CD4+ Treg cells ([1]; scRNAseq T cells): reduced
- CD8+/Treg ratio ([1]; scRNAseq T cells): increased
- proportion of CD8+ Trm and CD8+ Tex cells ([1]; scRNAseq T cells): increased
- proportion of tip cells and postcapillary and immature endothelial cells ([1]; scRNAseq endothelial compartment): reduced
- proportion of intermediate fibroblast ([1]; scRNAseq fibroblasts): not affected
- trophocytes ([1]; scRNAseq fibroblasts): concomitant accumulation
- telocyte population ([1]; scRNAseq fibroblasts, HA degradation in vivo): virtually eliminated
- proportion of TGCs ([1]; scRNAseq goblet cells): strongly reduced
- levels of myeloid cell types (TAN, TAM, IM) ([1]; scRNAseq immune cells): reduced
- proportion of T and B cells ([1]; scRNAseq immune cells): increased
- proportion of TFSCs [1, 2]: clear reduction
- proportion of TRSCs in the persistent tumor cell population [1, 2]: relative enrichment
- proportion of TcTAs [1, 2]: limited proportional reduction
- vessel disorganization signature ([1]; whole endothelial compartment): reversed
- duration of response or progression-free or overall survival (pancreatic cancer): no improvement
- response rate in the experimental arm (pancreatic cancer): higher
